Reference: PMC7321962

How the values were obtained:
XPG FF67,68AA = biological target: T1, XPG FF67,68AA (Homo sapiens, UniProt P28715 1-1186, F67A;F68A); experiment: EMSA
T1 sequence: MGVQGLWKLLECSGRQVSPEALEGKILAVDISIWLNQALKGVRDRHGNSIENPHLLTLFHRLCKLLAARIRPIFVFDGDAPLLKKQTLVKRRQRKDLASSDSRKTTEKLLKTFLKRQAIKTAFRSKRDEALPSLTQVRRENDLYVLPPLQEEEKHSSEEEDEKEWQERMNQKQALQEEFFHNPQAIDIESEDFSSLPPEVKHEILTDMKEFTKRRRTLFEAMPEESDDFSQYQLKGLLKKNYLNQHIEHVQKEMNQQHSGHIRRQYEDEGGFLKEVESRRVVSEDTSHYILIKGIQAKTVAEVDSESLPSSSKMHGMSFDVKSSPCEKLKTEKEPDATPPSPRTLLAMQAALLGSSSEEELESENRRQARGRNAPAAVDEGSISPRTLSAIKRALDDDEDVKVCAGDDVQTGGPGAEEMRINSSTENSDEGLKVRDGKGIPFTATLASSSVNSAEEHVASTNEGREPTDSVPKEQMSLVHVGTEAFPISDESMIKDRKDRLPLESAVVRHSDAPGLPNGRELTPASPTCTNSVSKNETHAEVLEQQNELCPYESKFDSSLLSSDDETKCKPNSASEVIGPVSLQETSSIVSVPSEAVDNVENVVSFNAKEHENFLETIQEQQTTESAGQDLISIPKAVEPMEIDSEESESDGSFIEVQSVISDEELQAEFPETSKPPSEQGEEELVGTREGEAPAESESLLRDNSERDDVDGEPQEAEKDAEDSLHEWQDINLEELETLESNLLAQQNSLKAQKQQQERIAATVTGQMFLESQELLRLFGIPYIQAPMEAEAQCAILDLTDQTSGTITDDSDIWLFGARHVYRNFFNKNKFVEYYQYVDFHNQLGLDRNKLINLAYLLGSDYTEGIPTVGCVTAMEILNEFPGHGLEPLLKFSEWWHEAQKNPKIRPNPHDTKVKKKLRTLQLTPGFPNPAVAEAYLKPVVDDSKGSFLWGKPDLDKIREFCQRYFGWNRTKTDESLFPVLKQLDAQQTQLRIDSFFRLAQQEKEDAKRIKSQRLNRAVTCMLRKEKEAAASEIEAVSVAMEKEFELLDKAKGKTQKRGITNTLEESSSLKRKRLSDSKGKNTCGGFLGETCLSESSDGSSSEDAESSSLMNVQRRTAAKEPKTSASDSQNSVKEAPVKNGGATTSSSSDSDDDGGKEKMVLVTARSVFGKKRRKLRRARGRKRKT

[1] = biological target: T2, XPG-FLAG (full-length WT) (Homo sapiens, UniProt P28715 1-1186); experiment: EMSA
T2 sequence: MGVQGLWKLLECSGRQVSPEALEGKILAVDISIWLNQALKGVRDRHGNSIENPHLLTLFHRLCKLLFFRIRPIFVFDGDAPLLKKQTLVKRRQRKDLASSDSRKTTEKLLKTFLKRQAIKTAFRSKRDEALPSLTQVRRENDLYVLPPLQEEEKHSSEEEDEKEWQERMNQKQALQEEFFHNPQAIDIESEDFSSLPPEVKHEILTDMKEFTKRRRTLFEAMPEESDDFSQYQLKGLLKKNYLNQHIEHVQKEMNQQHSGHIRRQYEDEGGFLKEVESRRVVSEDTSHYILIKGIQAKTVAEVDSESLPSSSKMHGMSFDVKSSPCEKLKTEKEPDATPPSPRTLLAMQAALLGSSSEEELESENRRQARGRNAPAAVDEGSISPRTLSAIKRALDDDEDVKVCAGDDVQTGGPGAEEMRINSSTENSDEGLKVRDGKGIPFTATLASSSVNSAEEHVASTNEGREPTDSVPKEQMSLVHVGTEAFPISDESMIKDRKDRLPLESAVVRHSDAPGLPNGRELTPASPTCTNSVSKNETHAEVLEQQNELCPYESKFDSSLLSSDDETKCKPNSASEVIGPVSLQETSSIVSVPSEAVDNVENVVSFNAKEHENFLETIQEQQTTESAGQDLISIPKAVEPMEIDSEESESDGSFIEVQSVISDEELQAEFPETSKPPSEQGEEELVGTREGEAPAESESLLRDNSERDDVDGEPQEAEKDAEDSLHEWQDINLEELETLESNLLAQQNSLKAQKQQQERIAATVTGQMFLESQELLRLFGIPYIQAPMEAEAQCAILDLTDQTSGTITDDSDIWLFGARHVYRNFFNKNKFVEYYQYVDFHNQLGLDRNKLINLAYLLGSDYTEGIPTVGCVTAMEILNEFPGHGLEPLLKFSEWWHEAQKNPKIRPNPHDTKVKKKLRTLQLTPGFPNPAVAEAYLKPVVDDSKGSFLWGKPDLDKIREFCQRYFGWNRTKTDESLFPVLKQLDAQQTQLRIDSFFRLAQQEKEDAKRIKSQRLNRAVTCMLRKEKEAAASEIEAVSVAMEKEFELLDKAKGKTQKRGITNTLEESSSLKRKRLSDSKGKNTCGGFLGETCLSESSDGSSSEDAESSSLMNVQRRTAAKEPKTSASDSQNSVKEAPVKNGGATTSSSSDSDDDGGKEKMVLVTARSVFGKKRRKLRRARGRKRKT

B1: HP15T/C 15-nt bubble DNA (mixed)
DNA 1: CGCGAAGCGGGGCAGACAACGTGGCGCTGTTTTTTTTTTTTTTTGTGTCCTAGCACAGCGTATG
DNA 2: CGCGAAGCGCATACGCTGTGCTAGGACACCCCCCCCCCCCCCCCCAGCGCCACGTTGTCTGCCC
- binding result (XPG FF67,68AA): binds
- binding result [1]: binds
